Literature values as cited in article PMC2678197 (Chemistry & biology, 2009).

Biological target: eotaxin (Homo sapiens, UniProt P51671)
Conditions: read-out: equilibrium dissociation constant (Kd); binding to eotaxin; ref [26]

Chain of eotaxin (P51671 24-97): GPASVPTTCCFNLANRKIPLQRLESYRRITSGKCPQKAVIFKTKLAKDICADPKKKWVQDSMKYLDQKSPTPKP

Substance: 35-residue non-sulfated peptide: 35-residue non-sulfated peptide corresponding to the complete N-terminal region of CCR3 (MTTSLDTVETFGTTSYYDDVGLLCEKADTRALMAQ; unsulfated; the limits 1-35 are inferred from '35-residue' and 'complete N-terminal region')
- Kd: 80 ± 38 µM
